The labels stand for the following.
B1: Syntenin-1 (Mus musculus), O08992 (parent)
chain: MSLYPSLEDLKVDKVIQAQTAYSANPASQAFVLVDASAALPPDGNLYPKLYPELSQYMGLSLNEAEICESMPMVSGAPAQGQLVARPSSVNYMVAPVTGNDAGIRRAEIKQGIREVILCKDQDGKIGLRLKSIDNGIFVQLVQANSPASLVGLRFGDQVLQINGENCAGWSSDKAHKVLKQAFGEKITMTIRDRPFERTVTMHKDSSGHVGFIFKSGKITSIVKDSSAARNGLLTDHHICEINGQNVIGLKDAQIADILSTAGTVVTITIMPTFIFEHIIKRMAPSIMKSLMDHTIPEV
partner: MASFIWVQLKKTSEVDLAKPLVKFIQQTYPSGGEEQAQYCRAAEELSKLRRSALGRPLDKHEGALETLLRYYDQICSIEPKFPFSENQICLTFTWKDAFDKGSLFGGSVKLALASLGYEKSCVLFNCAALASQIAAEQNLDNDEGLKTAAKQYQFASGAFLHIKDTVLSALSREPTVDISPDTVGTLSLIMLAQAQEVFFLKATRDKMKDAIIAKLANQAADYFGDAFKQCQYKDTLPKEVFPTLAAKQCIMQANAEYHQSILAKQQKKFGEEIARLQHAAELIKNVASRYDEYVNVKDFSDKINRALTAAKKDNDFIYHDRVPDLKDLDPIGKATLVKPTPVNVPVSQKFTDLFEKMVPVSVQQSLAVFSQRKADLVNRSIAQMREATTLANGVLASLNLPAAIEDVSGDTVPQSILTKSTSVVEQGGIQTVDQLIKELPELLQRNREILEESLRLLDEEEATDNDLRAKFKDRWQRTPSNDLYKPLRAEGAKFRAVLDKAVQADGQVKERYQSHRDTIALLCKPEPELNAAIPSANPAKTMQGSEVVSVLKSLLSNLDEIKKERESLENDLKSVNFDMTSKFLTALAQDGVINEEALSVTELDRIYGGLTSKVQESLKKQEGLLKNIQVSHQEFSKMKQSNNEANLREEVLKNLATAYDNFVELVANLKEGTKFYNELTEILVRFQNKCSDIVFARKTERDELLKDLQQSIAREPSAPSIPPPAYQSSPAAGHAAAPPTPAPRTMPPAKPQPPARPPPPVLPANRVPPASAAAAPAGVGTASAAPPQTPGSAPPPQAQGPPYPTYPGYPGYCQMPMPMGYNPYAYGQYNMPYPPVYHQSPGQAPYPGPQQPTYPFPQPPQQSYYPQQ

The first assay covers variants of B1. As to conditions: with pdc6i_mouse Pdcd6ip.
For Y4A;P5A;Y47A;P48A;Y51A;P52A, the “effect of a mutation on the interaction” value was “disrupting interaction”.

A further assay covers variants of B1. As to conditions: with pdc6i_mouse Pdcd6ip. The source holds these as a separate data set.
As to Y4A;P5A;Y47A;P48A;Y51A;P52A, the “effect of a mutation on the interaction” value is reported as “disrupting interaction”.
Still for that read-out and setting: with Y51A;P52A the entry was “disrupting interaction”.
